From article PMC9365803, “Identification of a HTT-specific binding motif in DNAJB1 essential for suppression and disaggregation of HTT” (Nature Communications, 2022)
Read-outs that look alike come from different tables or passages of the source. Each block holds one molecule with its values, some of them ahead of it.

Legend:
HTTExon1Q48 [1] = molecular target: HTTExon1Q48
HTTExon1Q48 [2] = molecular target: HTTExon1Q48; remark: listed apart in the source
[3] = molecular target: the molecule itself; test: FRET or BRET; fibrilization assay: equimolar GST-HTTExon1Q48-CyPet and GST-HTTExon1Q48-YPet, 0.75 µM in all; 30 mM HEPES pH 7.4, 150 mM NaCl, 5 mM MgCl2, 1 mM DTT, 5 mM ATP with regenerating system; without chaperones; FRET rises on aggregation
DNAJB1^wt [4] = molecular target: T1, DNAJB1^wt (human, UniProt P25685 1-340); test: cross-linking; XL-MS: HTTExon1Q23/48 incubated with Hsc70, DNAJB1 and Apg2 in the presence of ATP; 5–10 μM total protein, 0.5–1 mM SDA, 30 min at room temperature, UV photoactivation, SDS-PAGE, in-gel digestion with elastase, LC/MS; conditions: both partners purified
T1 construct: DNAJB1 (human Hsp40), class B J-domain protein; primers M1/S1 start at the start codon and the stop codon follows residue 340 (primers E, T1); also called wt DNAJB1; Hsp40; source: E. coli BL21-CodonPlus (DE3)-RIPL, purified (Ni-NTA; His-Smt3 tag cleaved with His-Ulp1); not shown: 6His-Smt3, N-terminal, cleaved
T1 sequence (P25685 whole entry): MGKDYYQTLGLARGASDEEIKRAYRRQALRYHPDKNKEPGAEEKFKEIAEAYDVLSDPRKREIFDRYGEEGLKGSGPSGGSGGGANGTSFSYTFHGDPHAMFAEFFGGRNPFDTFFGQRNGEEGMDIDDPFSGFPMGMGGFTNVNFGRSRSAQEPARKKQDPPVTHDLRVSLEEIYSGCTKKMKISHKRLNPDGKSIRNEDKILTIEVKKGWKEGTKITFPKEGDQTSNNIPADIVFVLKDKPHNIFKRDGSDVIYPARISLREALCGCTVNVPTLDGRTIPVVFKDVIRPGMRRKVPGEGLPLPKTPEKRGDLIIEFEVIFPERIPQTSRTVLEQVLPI

DNAJB1^wt [5] = molecular target: T1, DNAJB1^wt; test: co-sedimentation; HTT fibril-binding assay: 2 µM HTTExon1Q48 aggregated 4.5 h at 20 °C; DNAJB1 variant added at 1 µM, 1 h at RT; sedimented at 20.000 rpm 30 min 4 °C; pellet analysed by Western blot; conditions: both partners purified

Molecule: DNAJB1^H244Q (from UniProt P25685 1-340) (natural protein)
half-life (T1/2) of HTTExon1Q48 fibrilization, FRET assay, with Hsc70, Apg2 and ATP (HTTExon1Q48 [2]): 24 h

B1: HTTExon1Q48ΔP2 (domain or fragment)
chain: MATLEKLMKAFESLKSFQQQQQQQQQQQQQQQQQQQQQQQQQQQQQQQQQQQQQQQQQQQQQQQQPPPPPPPPPPPQLPQPPPQAQPLLPQAAEEPLHRP
notes: Used soluble in the FRET assay and as fibrils in the disaggregation assay; also called HTTExon1Q48ΔP2-CyPet/YPet; source: E. coli BL21-CodonPlus (DE3)-RIPL, purified (glutathione sepharose); not shown: CyPet or YPet, C-terminal, kept
binding result [3]: binds

B3: HTTExon1Q48 fibrils (other)
chain: MATLEKLMKAFESLKSFQQQQQQQQQQQQQQQQQQQQQQQQQQQQQQQQQQQQQQQQQQQQQQQQPPPPPPPPPPPQLPQPPPQAQPLLPQLQPPPPPPPPPPGPAAAEEPLHRP
notes: first exon of huntingtin with 48 glutamines, as amyloid fibrils; Amyloid fibrils of many copies; also called HTT fibrils; preformed HTTExon1Q48 fibrils; not shown: GST, N-terminal, cleaved; CyPet, C-terminal, kept
binding result (DNAJB1^wt [5]): binds

Continued, in another order:

half-life (T1/2) of HTTExon1Q48 fibrilization, FRET assay, with Hsc70, Apg2 and ATP (HTTExon1Q48 [1]): 16 h
Molecule: DNAJB1^K242A (from UniProt P25685 1-340) (natural protein)

half-life (T1/2) of HTTExon1Q48 fibrilization, FRET assay, with Hsc70, Apg2 and ATP (HTTExon1Q48 [2]): 17 h
Molecule: DNAJB1^H244R (from UniProt P25685 1-340) (natural protein)

half-life (T1/2) of HTTExon1Q48 fibrilization, FRET assay, with Hsc70, Apg2 and ATP (HTTExon1Q48 [2]): 10 h
Molecule: DNAJB1^H244F (from UniProt P25685 1-340) (natural protein)

binding result (DNAJB1^wt [4]): binds
B2: HTTExon1Q48 (domain or fragment)
chain: B3 chain
notes: first exon of huntingtin with an expanded stretch of 48 glutamines; The XL-MS methods say only HTT; the only purification told is that of GST-HTTExon1Q48-CyPet/YPet (pGEX-6P1), so tags in the XL-MS sample are not certain; In the FRET assay two forms (CyPet and YPet) are mixed equimolar; also called GST-HTTExon1Q48-CyPet/YPet; HTTExon1Q48-CyPet/YPet; source: E. coli BL21-CodonPlus (DE3)-RIPL, …
binding result [3]: binds
